“And” between values parts separate entries of the source, which are not always exact repeats. Equal entries are not always repeated. Where two headings read alike, the source gives them in different places.
What was measured:
[1] = test system: R5 HIV-2 isolates; assay: Inhibition of replication in PBMC cultures, RT activity readout: panel of five R5 HIV-2 isolates; format: cell-based
Method: Two well-characterized R5 HIV-1 isolates were included for comparative purposes.
Viruses: All virus isolates were grown and titered exclusively in stimulated PBMC as described previously.
Equal numbers of cells from each donor were then separately stimulated with 5 ug phytohemagglutinin/ml (Sigma, St. Louis, Mo.) or with surface-immobilized anti-CD3 antibody OKT3 in RPMI 1640 medium containing 10% fetal calf serum, 100 Units of interleukin-2/ml (NIH AIDS Research and Reference Reagent Program), glutamine, and antibiotics (PBMC culture medium) as previously described. After 72 hours, equal numbers of PBMC stimulated by one of these two methods from each donor were combined for use in infection assays as follows. […] The virus inoculum was adjusted to 400 to 2,000 times the TCID50 per ml in PBMC culture medium, and a 50-ul aliquot was added to each culture. The inhibitory doses refer to the concentrations of the agents present at this point in the culture, when virus, cells, and inhibitors were all present at their final concentrations.
The inhibition data were analyzed using GraphPad Prism software (GraphPad Software, San Diego, Calif.). A 4-parameter logistic fit was used calculate the concentration of inhibitor that afforded a 50% and a 90% reduction in RT activity. […] The % inhibitions where best-fit curve reached a top plateau, also as calculated by GraphPad Prism software, are reported as well as maximum percent inhibition (MPI). […] Inhibition curves with a poor sigmoid fit (R^2<0.7) were excluded from data analysis.
The panel was tested five times on a different PBMC donor pool each time, using the RT ELISA as a readout.

[2] = human, in vivo
Method: Sera were diluted as appropriate and combined with L1.2-CCR5 cells, which are mouse pre-B lymphoma cells engineered to stably express human CCR5. […] Following incubation with test samples, cells were washed and combined with a FITC-labeled sheep antibody against human IgG4 (The Binding Site Limited, Cat. #AF009). Cells were washed again and analyzed by flow cytometry.
Serum was collected post-treatment, cryopreserved, and analyzed for PRO 140 levels. Peak serum concentrations ranged to […] at 0.1 mg/kg and […] at 0.5 mg/kg.

[3] = test system: HIV-1 (CCR5-tropic virus); format: in vivo; settings: for Mean log10 HIV RNA change: Day 10 post-treatment
Source text: The efficacy data collected during the study were changes in viral load and CD4 counts over time. The safety data collected during the study were serious adverse events (SAEs)/adverse events (AEs) and changes in laboratory parameters (hematology, chemistry), physical exam, viral tropism and ECGs over time.
(§1) All patients were screened prior to the study for the presence of virus that utilizes only CCR5 as the entry coreceptor., i.e., CCR5-tropic virus.
The primary efficacy endpoint was the reduction in plasma HIV RNA level as measured by the Roche Amplicor™ Assay. The primary efficacy endpoint is the maximum change from baseline in viral load, defined as HIV-1 copies/ml, as measured by the Roche Amplicor™ Assay.

[4] = Phase 1b clinical trial: safety, immunogenicity, RANTES, coreceptor tropism (Trofile); format: in vivo, human
Source text: as §1
Where no CXCR4-using clones are identified in a pre-dose sample from a subject, the on-treatment CXCR4-using virus can be identified as being phylogenetically very distant from the CCR5 tropic baseline virus; in such a case, the emergence of a pre-dose or pre-treatment CXCR4-using virus, i.e., one that is present at baseline, but is not detected, may likely explain the D/M tropism in the subject, as opposed to a tropism switch.

[5] = test system: CCR5 chemokine signaling; assay: RANTES-induced calcium mobilization in L1.2-CCR5 cells vs HIV-1JR-FL replication in PBMC (FIG. 4); format: cell-based, human; settings: FIG. 4 legend, result in words
Source text: Similar results were obtained for MIP-1α and MIP-1β.

[6] = test system: HIV-1JR-CSF; assay: hu-PBL SCID mouse model infected with HIV-1JR-CSF (FIG. 5); format: in vivo; settings: multiple doses after steady state viral levels, FIG. 5 legend
Method: SCID mice were reconstituted with normal human peripheral blood mononuclear cells and infected 2 weeks later with HIV-1JR-CSF. Multiple doses of PRO 140 were administered following attainment of steady state viral levels. Plasma viral loads pre- and post-injection are indicated.

[7] = Median line of the five R5 HIV-2 isolates

B1: PRO 140: humanized IgG4,κ anti-CCR5 monoclonal antibody, humanized version of murine mAb PA14 (antibody, chains of the INN, looked up, V domains shown)
VH: EVQLVESGGGLVKPGGSLRLSCAASGYTFSNYWIGWVRQAPGKGLEWIGDIYPGGNYIRNNEKFKDKTTLSADTSKNTAYLQMNSLKTEDTAVYYCGSSFGSNYVFAWFTYWGQGTLVTVSS
VL: DIVMTQSPLSLPVTPGEPASISCRSSQRLLSSYGHTYLHWYLQKPGQSPQLLIYEVSNRFSGVPDRFSGSGSGTDFTLKISRVEAEDVGVYYCSQSTHVPLTFGQGTKVEIK
EC50, median over the R5 HIV-2 isolates [1, 7]: 0.12 µg/mL
EC90, median over the R5 HIV-2 isolates [1, 7]: 21 µg/mL
median MPI against the R5 HIV-2 isolates ([1]; maximum percent inhibition): 96%
MPI, Median Values, all R5 HIV-2 Viruses ([1]; median, all R5 HIV-2 viruses): 96%
terminal serum half-life [2]: 240 to 288 h
individual viral load reductions ranging up to ([3]; 2.0 mg/kg and 5.0 mg/kg dose levels): up to 2.5 log10 and ≤ 99.7%
Maximum decrease of viral load at any time ([3]; 5 mg/kg): −1.8 log
Patients with <400 copies/mL (anytime) ([3]; 5 mg/kg): 4/10
Patients with >1 log decrease (anytime) ([3]; 5 mg/kg): 10/10
viral load decrease at day 22 ([3]; 5 mg/kg): −0.73
time to suppression of mean viral load by 1.0 log10 (90%) ([3]; 5.0 mg/kg cohort): within four days
time viral load persisted at or below the 1.0 log10 level of reduction ([3]; 5.0 mg/kg cohort): two to three weeks
Mean log10 HIV RNA change ([3]; 0.5 mg/kg): −0.37 log10
Mean log10 HIV RNA change ([3]; 2.0 mg/kg): −1.04 log10
Mean log10 HIV RNA change ([3]; 5.0 mg/kg): −1.70 log10
response rate (percentage of patients with a ≧1 log10 decrease in HIV RNA at any time) ([3]; highest dose cohort): 100%
subjects with dual/mixed tropism result post-treatment ([4]; PRO 140 subjects (0.5 mg/kg group, day 8 only)): 1/30
dose-limiting toxicity ([4]; Phase 1b): No dose-limiting toxicity or obvious pattern of toxicity
plasma RANTES (CCL5) chemokine levels ([4]; Phase 1b): No change in plasma RANTES (CCL5) chemokine levels
treatment related SAEs ([4]; Phase 1b): No treatment related SAEs
tolerability ([4]; all study groups (0.5, 2.0, 5.0 mg/kg)): well-tolerated
effect on HIV-1 vs chemokine signaling [5]: blocks HIV-1 but not chemokine signaling
control of viral replication in HIV-1-infected mice [6]: provides prolonged control of viral replication
